Experimental data taken from patent US20150064184A1.

Tests used:
[1] = biological target: human insulin receptor extracellular domain (HIR ECD) (human) (UniProt P06213); experiment: ELISA, HIR ECD plated (second experiment)
[2] = biological target: human insulin receptor extracellular domain (HIR ECD) (human) (UniProt P06213); experiment: ELISA, HIR ECD plated; compared with the HIR Ab

- EC50 [1]: 4.8 nM
- reduction in receptor binding affinity against the HIR Ab [2]: 95%
Substance: GUSB-HIR Ab fusion protein (human GUSB fused to the amino terminus of the HIR Ab heavy chain) (from UniProt P08236 23-633) (antibody)
